According to patent US20180362668:
Where “and” joins values, the source holds several entries; their conditions need not be identical. Equal values may be shown once.

Columns and labels:
[1] = molecular target: T1, VhH-Fc fusion protein chain B with T366S + L368A + Y407V + F405K + E357A; test: non-reducing SDS-PAGE densitometry of Protein A-purified co-transfection product; chain A:chain B vectors 1:4
[2] = molecular target: T1, VhH-Fc fusion protein chain B with …; test: non-reducing SDS-PAGE densitometry of Protein A-purified co-transfection product; chain A:chain B vectors 4:1
[3] = molecular target: Fc protein chain B with D356C + T366S + L368A + Y407V + F405K; test: non-reducing SDS-PAGE densitometry of Protein A-purified co-transfection product; chain A:chain B vectors 1:1
[4] = molecular target: Fc protein chain B with D356C + T366S + L368A + Y407V; test: non-reducing SDS-PAGE of Protein A-purified co-transfection product; chain A:chain B vectors 1:4
[5] = molecular target: Fc protein chain B with D356C + T366S + L368A + Y407V; test: non-reducing SDS-PAGE of Protein A-purified co-transfection product; chain A:chain B vectors 4:1
[6] = molecular target: T2, VhH-Fc fusion protein chain B with T366S + L368G + Y407A + K409A; test: non-reducing SDS-PAGE densitometry of Protein A-purified co-transfection product; chain A:chain B vectors 1:4
[7] = molecular target: T2, VhH-Fc fusion protein chain B with …; test: non-reducing SDS-PAGE densitometry of Protein A-purified co-transfection product; chain A:chain B vectors 4:1
[8] = molecular target: Fc protein chain B with D356C + T366S + L368A + Y407V; test: non-reducing SDS-PAGE densitometry of Protein A-purified co-transfection product; chain A:chain B vectors 1:1
[9] = molecular target: T3, VhH-Fc fusion protein chain B with D356C + T366S + L368A + Y407V; test: non-reducing SDS-PAGE densitometry of Protein A-purified co-transfection product; chain A:chain B vectors 1:4
[10] = molecular target: T3, VhH-Fc fusion protein chain B with …; test: non-reducing SDS-PAGE densitometry of Protein A-purified co-transfection product; chain A:chain B vectors 4:1
[11] = molecular target: T4, VhH-Fc fusion protein chain B with T366S + L368A + Y407V + K409A + E357A; test: non-reducing SDS-PAGE densitometry of Protein A-purified co-transfection product; chain A:chain B vectors 1:4
[12] = molecular target: T4, VhH-Fc fusion protein chain B with …; test: non-reducing SDS-PAGE densitometry of Protein A-purified co-transfection product; chain A:chain B vectors 4:1
[13] = molecular target: T5, VhH-Fc fusion protein chain B with T366S + L368A + Y407V + K409A + K392D; test: non-reducing SDS-PAGE densitometry of Protein A-purified co-transfection product; chain A:chain B vectors 1:4
[14] = molecular target: T5, VhH-Fc fusion protein chain B with …; test: non-reducing SDS-PAGE densitometry of Protein A-purified co-transfection product; chain A:chain B vectors 4:1

B1: ScFv-Fc fusion protein chain A with T366W + K409A + Y349D + S354D (protein)
chain: EVQLLESGGGVVQPGRSLRLSCIASGFTFSSYPMTWVRQAPGKGLEWVASISYDGSYKYKADSMKGRLTISRDNSKNTLYLEMNSLTAEDTAVYYCARTAFFNAYDFWGQGTLVTVSSASTKGPSVGGGGSGGGGSEIVMTQSPATLSVSPGERATLSCRASQSVRSNLAWYQQKPGQAPRLLIYAASTRATGIPARFSGSGSGTEFTLTISSLQSEDFAVYYCQQYNEWFRTSGQGTKVEIKRDKTHTCPPCPAPELLGGPSVFLFPPKPKDTLMISRTPEVTCVVVDVSHENPEVKFNWYVDGVEVHNAKTKPREEQYNSTYRVVSVLTVLHQDWLNGKEYKCKVSNKALPAPIEKTISKAKGQPREPQVDTLPPDRDELTKNQVSLWCLVKGFYPSDIAVEWESNGQPENNYKTTPPVLDSDGSFFLYSALTVDKSRWQQGNVFSCSVMHEALHNHYTQKSLSLSPGK
B1 showed a ScFv-Fc/VhH-Fc heterodimer (%) [1] of 64% and a ScFv-Fc/VhH-Fc heterodimer (%) [2] of 61%.

B2: ScFv-Fc fusion protein chain A with Y349C + T366W + K409A + L368E (protein)
chain: EVQLLESGGGVVQPGRSLRLSCIASGFTFSSYPMTWVRQAPGKGLEWVASISYDGSYKYKADSMKGRLTISRDNSKNTLYLEMNSLTAEDTAVYYCARTAFFNAYDFWGQGTLVTVSSASTKGPSVGGGGSGGGGSEIVMTQSPATLSVSPGERATLSCRASQSVRSNLAWYQQKPGQAPRLLIYAASTRATGIPARFSGSGSGTEFTLTISSLQSEDFAVYYCQQYNEWFRTSGQGTKVEIKRDKTHTCPPCPAPELLGGPSVFLFPPKPKDTLMISRTPEVTCVVVDVSHENPEVKFNWYVDGVEVHNAKTKPREEQYNSTYRVVSVLTVLHQDWLNGKEYKCKVSNKALPAPIEKTISKAKGQPREPQVCTLPPSRDELTKNQVSLWCEVKGFYPSDIAVEWESNGQPENNYKTTPPVLDSDGSFFLYSALTVDKSRWQQGNVFSCSVMHEALHNHYTQKSLSLSPGK
Protein B2 has a ScFv-Fc/Fc heterodimer (%) [3] of 30%.

B3: ScFv-Fc fusion protein chain A with Y349C + T366W (protein)
chain: EVQLLESGGGVVQPGRSLRLSCIASGFTFSSYPMTWVRQAPGKGLEWVASISYDGSYKYKADSMKGRLTISRDNSKNTLYLEMNSLTAEDTAVYYCARTAFFNAYDFWGQGTLVTVSSASTKGPSVGGGGSGGGGSEIVMTQSPATLSVSPGERATLSCRASQSVRSNLAWYQQKPGQAPRLLIYAASTRATGIPARFSGSGSGTEFTLTISSLQSEDFAVYYCQQYNEWFRTSGQGTKVEIKRDKTHTCPPCPAPELLGGPSVFLFPPKPKDTLMISRTPEVTCVVVDVSHENPEVKFNWYVDGVEVHNAKTKPREEQYNSTYRVVSVLTVLHQDWLNGKEYKCKVSNKALPAPIEKTISKAKGQPREPQVCTLPPSRDELTKNQVSLWCLVKGFYPSDIAVEWESNGQPENNYKTTPPVLDSDGSFFLYSKLTVDKSRWQQGNVFSCSVMHEALHNHYTQKSLSLSPGK
B3 was tested, and the ScFv-Fc/Fc heterodimer (%) [4] was 44% and the ScFv-Fc/Fc heterodimer (%) [5] was 42%.

B4: ScFv-Fc fusion protein chain A with T366W + F405K (protein)
chain: EVQLLESGGGVVQPGRSLRLSCIASGFTFSSYPMTWVRQAPGKGLEWVASISYDGSYKYKADSMKGRLTISRDNSKNTLYLEMNSLTAEDTAVYYCARTAFFNAYDFWGQGTLVTVSSASTKGPSVGGGGSGGGGSEIVMTQSPATLSVSPGERATLSCRASQSVRSNLAWYQQKPGQAPRLLIYAASTRATGIPARFSGSGSGTEFTLTISSLQSEDFAVYYCQQYNEWFRTSGQGTKVEIKRDKTHTCPPCPAPELLGGPSVFLFPPKPKDTLMISRTPEVTCVVVDVSHENPEVKFNWYVDGVEVHNAKTKPREEQYNSTYRVVSVLTVLHQDWLNGKEYKCKVSNKALPAPIEKTISKAKGQPREPQVYTLPPSRDELTKNQVSLWCLVKGFYPSDIAVEWESNGQPENNYKTTPPVLDSDGSFKLYSKLTVDKSRWQQGNVFSCSVMHEALHNHYTQKSLSLSPGK
B4 gave a ScFv-Fc/VhH-Fc heterodimer (%) [6] of 93% and a ScFv-Fc/VhH-Fc heterodimer (%) [7] of 77%.

B5: ScFv-Fc fusion protein chain A with Y349C + T366W + F405K (protein)
chain: EVQLLESGGGVVQPGRSLRLSCIASGFTFSSYPMTWVRQAPGKGLEWVASISYDGSYKYKADSMKGRLTISRDNSKNTLYLEMNSLTAEDTAVYYCARTAFFNAYDFWGQGTLVTVSSASTKGPSVGGGGSGGGGSEIVMTQSPATLSVSPGERATLSCRASQSVRSNLAWYQQKPGQAPRLLIYAASTRATGIPARFSGSGSGTEFTLTISSLQSEDFAVYYCQQYNEWFRTSGQGTKVEIKRDKTHTCPPCPAPELLGGPSVFLFPPKPKDTLMISRTPEVTCVVVDVSHENPEVKFNWYVDGVEVHNAKTKPREEQYNSTYRVVSVLTVLHQDWLNGKEYKCKVSNKALPAPIEKTISKAKGQPREPQVCTLPPSRDELTKNQVSLWCLVKGFYPSDIAVEWESNGQPENNYKTTPPVLDSDGSFKLYSKLTVDKSRWQQGNVFSCSVMHEALHNHYTQKSLSLSPGK
For B5, the ScFv-Fc/Fc heterodimer (%) [4] was 49%, the ScFv-Fc/Fc heterodimer (%) [5] was 66% and the ScFv-Fc/Fc heterodimer (%) [8] was 60% and 70%. It also gave a ScFv-Fc/VhH-Fc heterodimer (%) [9] of 39% and a ScFv-Fc/VhH-Fc heterodimer (%) [10] of 55%.

B6: ScFv-Fc fusion protein chain A with T366W + F405K + Y349D + S354D (protein)
chain: EVQLLESGGGVVQPGRSLRLSCIASGFTFSSYPMTWVRQAPGKGLEWVASISYDGSYKYKADSMKGRLTISRDNSKNTLYLEMNSLTAEDTAVYYCARTAFFNAYDFWGQGTLVTVSSASTKGPSVGGGGSGGGGSEIVMTQSPATLSVSPGERATLSCRASQSVRSNLAWYQQKPGQAPRLLIYAASTRATGIPARFSGSGSGTEFTLTISSLQSEDFAVYYCQQYNEWFRTSGQGTKVEIKRDKTHTCPPCPAPELLGGPSVFLFPPKPKDTLMISRTPEVTCVVVDVSHENPEVKFNWYVDGVEVHNAKTKPREEQYNSTYRVVSVLTVLHQDWLNGKEYKCKVSNKALPAPIEKTISKAKGQPREPQVDTLPPDRDELTKNQVSLWCLVKGFYPSDIAVEWESNGQPENNYKTTPPVLDSDGSFKLYSKLTVDKSRWQQGNVFSCSVMHEALHNHYTQKSLSLSPGK
With B6 the ScFv-Fc/VhH-Fc heterodimer (%) [11] was 86% and the ScFv-Fc/VhH-Fc heterodimer (%) [12] was 61%.

B7: ScFv-Fc fusion protein chain A with T366W + F405K + D399S (protein)
chain: EVQLLESGGGVVQPGRSLRLSCIASGFTFSSYPMTWVRQAPGKGLEWVASISYDGSYKYKADSMKGRLTISRDNSKNTLYLEMNSLTAEDTAVYYCARTAFFNAYDFWGQGTLVTVSSASTKGPSVGGGGSGGGGSEIVMTQSPATLSVSPGERATLSCRASQSVRSNLAWYQQKPGQAPRLLIYAASTRATGIPARFSGSGSGTEFTLTISSLQSEDFAVYYCQQYNEWFRTSGQGTKVEIKRDKTHTCPPCPAPELLGGPSVFLFPPKPKDTLMISRTPEVTCVVVDVSHENPEVKFNWYVDGVEVHNAKTKPREEQYNSTYRVVSVLTVLHQDWLNGKEYKCKVSNKALPAPIEKTISKAKGQPREPQVYTLPPSRDELTKNQVSLWCLVKGFYPSDIAVEWESNGQPENNYKTTPPVLSSDGSFKLYSKLTVDKSRWQQGNVFSCSVMHEALHNHYTQKSLSLSPGK
B7 showed a ScFv-Fc/VhH-Fc heterodimer (%) [13] of 69% and a ScFv-Fc/VhH-Fc heterodimer (%) [14] of 66%.

B8: ScFv-Fc fusion protein chain A with T366W + K409A + Y349D (protein)
chain: EVQLLESGGGVVQPGRSLRLSCIASGFTFSSYPMTWVRQAPGKGLEWVASISYDGSYKYKADSMKGRLTISRDNSKNTLYLEMNSLTAEDTAVYYCARTAFFNAYDFWGQGTLVTVSSASTKGPSVGGGGSGGGGSEIVMTQSPATLSVSPGERATLSCRASQSVRSNLAWYQQKPGQAPRLLIYAASTRATGIPARFSGSGSGTEFTLTISSLQSEDFAVYYCQQYNEWFRTSGQGTKVEIKRDKTHTCPPCPAPELLGGPSVFLFPPKPKDTLMISRTPEVTCVVVDVSHENPEVKFNWYVDGVEVHNAKTKPREEQYNSTYRVVSVLTVLHQDWLNGKEYKCKVSNKALPAPIEKTISKAKGQPREPQVDTLPPSRDELTKNQVSLWCLVKGFYPSDIAVEWESNGQPENNYKTTPPVLDSDGSFFLYSALTVDKSRWQQGNVFSCSVMHEALHNHYTQKSLSLSPGK
For B8, the ScFv-Fc/VhH-Fc heterodimer (%) [1] was 60% and the ScFv-Fc/VhH-Fc heterodimer (%) [2] was 49%.
